According to article PMC9482650, “Quantitative fragmentomics allow affinity mapping of interactomes” (Nature Communications, 2022):
One block for each binder: values may come before it.

Key:
Assay in all cases: holdup assay
Design in all cases: key: below the threshold = too weak to quantify, mostly under pKd 3.1 to 4
Conditions in all cases: plain residues with an end cap or a label only (N-terminal biotin on a linker: ado-ado)
CASK, O14936 = biological target: CASK, O14936
DFNB31_1, Q9P202 = biological target: T1, DFNB31_1, Q9P202
T1 sequence (Q9P202 135-233, limits assumed, looked up): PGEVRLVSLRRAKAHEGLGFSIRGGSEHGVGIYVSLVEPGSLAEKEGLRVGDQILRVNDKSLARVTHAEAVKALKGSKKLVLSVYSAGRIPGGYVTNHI

DLG3_2, Q92796 = biological target: T2, DLG3_2, Q92796
T2 sequence (Q92796 221-321, limits assumed, looked up): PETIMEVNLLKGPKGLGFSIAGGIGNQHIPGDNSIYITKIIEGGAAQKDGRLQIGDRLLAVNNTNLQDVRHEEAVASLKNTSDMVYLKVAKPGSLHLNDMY

DLG4_3, P78352 = biological target: DLG4_3, P78352
Sequence of DLG4_3, P78352 (P78352 306-403): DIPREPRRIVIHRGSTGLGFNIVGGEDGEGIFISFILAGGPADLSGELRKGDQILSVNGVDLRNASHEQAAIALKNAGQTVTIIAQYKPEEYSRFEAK

DLG5_1, Q8TDM6 = biological target: DLG5_1, Q8TDM6
Sequence of DLG5_1, Q8TDM6 (Q8TDM6 617-713): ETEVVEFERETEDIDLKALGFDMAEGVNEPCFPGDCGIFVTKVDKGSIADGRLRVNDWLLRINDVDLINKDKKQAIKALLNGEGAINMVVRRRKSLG

FRMPD2_2, Q68DX3 = biological target: FRMPD2_2, Q68DX3
Sequence of FRMPD2_2, Q68DX3 (Q68DX3 944-1038): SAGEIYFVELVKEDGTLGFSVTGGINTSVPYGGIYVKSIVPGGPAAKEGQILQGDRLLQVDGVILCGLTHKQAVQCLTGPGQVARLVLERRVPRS

GOPC, Q9HD26 = biological target: GOPC, Q9HD26
GORASP2, Q9H8Y8 = biological target: GORASP2, Q9H8Y8
GRIP2_5, Q9C0E4 = biological target: GRIP2_5, Q9C0E4
Sequence of GRIP2_5, Q9C0E4 (Q9C0E4 544-642): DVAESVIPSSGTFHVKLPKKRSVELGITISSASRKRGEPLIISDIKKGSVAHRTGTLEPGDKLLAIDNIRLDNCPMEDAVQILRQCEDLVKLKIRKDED

HTRA4, P83105 = biological target: T3, HTRA4, P83105
T3 sequence (P83105 378-476, limits assumed, looked up): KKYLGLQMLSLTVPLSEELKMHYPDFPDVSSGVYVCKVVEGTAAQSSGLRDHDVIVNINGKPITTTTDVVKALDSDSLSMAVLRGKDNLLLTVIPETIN

IL16_1, Q14005 = biological target: IL16_1, Q14005
Sequence of IL16_1, Q14005 (Q14005 210-306): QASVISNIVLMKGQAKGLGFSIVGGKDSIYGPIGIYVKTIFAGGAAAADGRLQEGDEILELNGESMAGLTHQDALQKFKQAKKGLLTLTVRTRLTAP

IL16_4, Q14005 = biological target: IL16_4, Q14005
Sequence of IL16_4, Q14005 (Q14005 1229-1329): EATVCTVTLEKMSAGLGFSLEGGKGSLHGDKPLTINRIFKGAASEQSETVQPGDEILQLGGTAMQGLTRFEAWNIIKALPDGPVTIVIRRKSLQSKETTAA

Inadl_8, Q8NI35 = biological target: Inadl_8, Q8NI35
Sequence of Inadl_8, Q8NI35 (Q8NI35 1425-1530): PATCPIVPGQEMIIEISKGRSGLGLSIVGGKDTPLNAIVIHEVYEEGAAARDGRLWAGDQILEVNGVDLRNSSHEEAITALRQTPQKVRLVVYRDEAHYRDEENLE

LIMK2, P53671 = biological target: LIMK2, P53671
Sequence of LIMK2, P53671 (P53671 143-248): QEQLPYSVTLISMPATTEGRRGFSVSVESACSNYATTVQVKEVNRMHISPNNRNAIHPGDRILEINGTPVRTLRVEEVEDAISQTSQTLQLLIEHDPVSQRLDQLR

LIN7B, Q9HAP6 = biological target: T4, LIN7B, Q9HAP6
T4 sequence (Q9HAP6 88-185, limits assumed, looked up): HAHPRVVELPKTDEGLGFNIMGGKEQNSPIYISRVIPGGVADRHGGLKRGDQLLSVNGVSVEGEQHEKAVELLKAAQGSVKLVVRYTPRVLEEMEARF

MPDZ_10, O75970 = biological target: T5, MPDZ_10, O75970
T5 sequence (O75970 1624-1722, limits assumed, looked up): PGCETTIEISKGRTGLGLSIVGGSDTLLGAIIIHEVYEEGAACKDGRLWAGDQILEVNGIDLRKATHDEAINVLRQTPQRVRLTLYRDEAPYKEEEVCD

NHERF3_1, Q5T2W1 = biological target: T6, NHERF3_1, Q5T2W1
T6 sequence (Q5T2W1 4-100, limits assumed, looked up): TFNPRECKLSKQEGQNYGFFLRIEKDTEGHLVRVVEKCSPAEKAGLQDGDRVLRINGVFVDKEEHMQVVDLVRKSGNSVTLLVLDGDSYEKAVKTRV

NOS1, P29475 = biological target: NOS1, P29475
Sequence of NOS1, P29475 (P29475 9-101): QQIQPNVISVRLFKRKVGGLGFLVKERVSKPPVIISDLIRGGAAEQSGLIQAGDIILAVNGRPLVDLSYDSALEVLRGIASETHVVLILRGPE

PARD3_3, Q8TEW0 = biological target: PARD3_3, Q8TEW0
Sequence of PARD3_3, Q8TEW0 (Q8TEW0 582-685): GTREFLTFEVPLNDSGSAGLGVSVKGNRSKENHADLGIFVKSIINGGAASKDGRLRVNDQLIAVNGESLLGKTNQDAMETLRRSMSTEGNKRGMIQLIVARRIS

PDLIM1, O00151 = biological target: PDLIM1, O00151
Sequence of PDLIM1, O00151 (O00151 1-87): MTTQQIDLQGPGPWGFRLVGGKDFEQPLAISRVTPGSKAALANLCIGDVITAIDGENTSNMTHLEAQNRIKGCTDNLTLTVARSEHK

RAPGEF6, Q8TEU7 = biological target: T7, RAPGEF6, Q8TEU7
T7 sequence (Q8TEU7 525-625, limits assumed, looked up): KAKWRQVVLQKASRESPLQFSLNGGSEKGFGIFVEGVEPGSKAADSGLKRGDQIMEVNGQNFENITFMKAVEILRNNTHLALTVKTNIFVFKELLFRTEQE

SCRIB_1, Q14160 = biological target: SCRIB_1, Q14160
Sequence of SCRIB_1, Q14160 (Q14160 718-814): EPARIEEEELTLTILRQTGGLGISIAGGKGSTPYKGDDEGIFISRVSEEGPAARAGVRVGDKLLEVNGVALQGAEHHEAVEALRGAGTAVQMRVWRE

SNTA1, Q13424 = biological target: T8, SNTA1, Q13424
T8 sequence (Q13424 82-180, limits assumed, looked up): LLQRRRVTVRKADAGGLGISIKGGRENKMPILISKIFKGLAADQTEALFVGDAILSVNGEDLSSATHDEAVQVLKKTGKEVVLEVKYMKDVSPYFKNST

SNTG1, Q9NSN8 = biological target: T9, SNTG1, Q9NSN8
T9 sequence (Q9NSN8 52-150, limits assumed, looked up): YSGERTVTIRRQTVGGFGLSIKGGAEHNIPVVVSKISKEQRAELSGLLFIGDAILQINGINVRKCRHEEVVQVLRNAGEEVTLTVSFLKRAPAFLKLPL

SNTG2, Q9NY99 = biological target: T10, SNTG2, Q9NY99
T10 sequence (Q9NY99 68-166, limits assumed, looked up): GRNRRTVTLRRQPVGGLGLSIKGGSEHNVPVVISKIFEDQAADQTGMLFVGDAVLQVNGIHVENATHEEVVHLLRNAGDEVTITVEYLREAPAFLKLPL

TIAM2, Q8IVF5 = biological target: T11, TIAM2, Q8IVF5
T11 sequence (Q8IVF5 885-986, limits assumed, looked up): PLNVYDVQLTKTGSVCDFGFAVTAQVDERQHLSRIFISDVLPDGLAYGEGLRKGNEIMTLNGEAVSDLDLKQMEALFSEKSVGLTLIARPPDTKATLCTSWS

Sequence of CASK, O14936 (O14936 487-570): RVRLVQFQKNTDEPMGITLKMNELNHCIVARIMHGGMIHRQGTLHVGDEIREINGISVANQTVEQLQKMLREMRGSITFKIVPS

- pKd (CASK, O14936): below the threshold
- pKd (DFNB31_1, Q9P202): below the threshold
- pKd (DLG3_2, Q92796): below the threshold
- pKd (DLG4_3, P78352): below the threshold
- pKd (DLG5_1, Q8TDM6): below the threshold
- pKd (FRMPD2_2, Q68DX3): below the threshold
- pKd (GOPC, Q9HD26): below the threshold
- pKd (GORASP2, Q9H8Y8): below the threshold
- pKd (GRIP2_5, Q9C0E4): below the threshold
- pKd (HTRA4, P83105): below the threshold
- pKd (IL16_1, Q14005): below the threshold
- pKd (IL16_4, Q14005): below the threshold
- pKd (Inadl_8, Q8NI35): below the threshold
- pKd (LIMK2, P53671): below the threshold
- pKd (LIN7B, Q9HAP6): below the threshold
- pKd (MPDZ_10, O75970): below the threshold
- pKd (NHERF3_1, Q5T2W1): 4.78
- pKd (NOS1, P29475): 3.56
- pKd (PARD3_3, Q8TEW0): below the threshold
- pKd (PDLIM1, O00151): below the threshold
- pKd (RAPGEF6, Q8TEU7): below the threshold
- pKd (SCRIB_1, Q14160): below the threshold
- pKd (SNTA1, Q13424): below the threshold
- pKd (SNTG1, Q9NSN8): below the threshold
- pKd (SNTG2, Q9NY99): below the threshold
- pKd (TIAM2, Q8IVF5): 3.57
B2: GOT1L1, Q8NHS2 (peptide)
chain: EKKTLIGIKL

- pKd (CASK, O14936): below the threshold
- pKd (DFNB31_1, Q9P202): below the threshold
- pKd (DLG3_2, Q92796): 4.21
- pKd (DLG4_3, P78352): below the threshold
- pKd (DLG5_1, Q8TDM6): below the threshold
- pKd (FRMPD2_2, Q68DX3): below the threshold
- pKd (GOPC, Q9HD26): below the threshold
- pKd (GORASP2, Q9H8Y8): below the threshold
- pKd (GRIP2_5, Q9C0E4): below the threshold
- pKd (HTRA4, P83105): below the threshold
- pKd (IL16_1, Q14005): below the threshold
- pKd (IL16_4, Q14005): below the threshold
- pKd (Inadl_8, Q8NI35): below the threshold
- pKd (LIMK2, P53671): below the threshold
- pKd (LIN7B, Q9HAP6): 3.57
- pKd (MPDZ_10, O75970): below the threshold
- pKd (NHERF3_1, Q5T2W1): below the threshold
- pKd (NOS1, P29475): below the threshold
- pKd (PARD3_3, Q8TEW0): below the threshold
- pKd (PDLIM1, O00151): below the threshold
- pKd (RAPGEF6, Q8TEU7): below the threshold
- pKd (SCRIB_1, Q14160): 3.56
- pKd (SNTA1, Q13424): below the threshold
- pKd (SNTG1, Q9NSN8): below the threshold
- pKd (SNTG2, Q9NY99): below the threshold
- pKd (TIAM2, Q8IVF5): 4.12
B3: CAVIN3, Q969G5 (peptide)
chain: EALLQMESVA

- pKd (CASK, O14936): below the threshold
- pKd (DFNB31_1, Q9P202): below the threshold
- pKd (DLG3_2, Q92796): below the threshold
- pKd (DLG4_3, P78352): below the threshold
- pKd (DLG5_1, Q8TDM6): below the threshold
- pKd (FRMPD2_2, Q68DX3): below the threshold
- pKd (GOPC, Q9HD26): 3.66
- pKd (GORASP2, Q9H8Y8): 4.36
- pKd (GRIP2_5, Q9C0E4): below the threshold
- pKd (HTRA4, P83105): 4.08
- pKd (IL16_1, Q14005): 3.8
- pKd (IL16_4, Q14005): below the threshold
- pKd (Inadl_8, Q8NI35): 4.27
- pKd (LIMK2, P53671): below the threshold
- pKd (LIN7B, Q9HAP6): below the threshold
- pKd (MPDZ_10, O75970): below the threshold
- pKd (NHERF3_1, Q5T2W1): 4.35
- pKd (NOS1, P29475): below the threshold
- pKd (PARD3_3, Q8TEW0): 4.04
- pKd (PDLIM1, O00151): below the threshold
- pKd (RAPGEF6, Q8TEU7): below the threshold
- pKd (SCRIB_1, Q14160): below the threshold
- pKd (SNTA1, Q13424): 3.64
- pKd (SNTG1, Q9NSN8): below the threshold
- pKd (SNTG2, Q9NY99): below the threshold
- pKd (TIAM2, Q8IVF5): 3.94
B5: CLDN2, P57739 (peptide)
chain: FNSYSLTGYV

Continued, binder first:

B1: ACOT8, O14734 (peptide)
chain: VKPQVSESKL
- pKd (CASK, O14936): below the threshold
- pKd (DFNB31_1, Q9P202): 4.29
- pKd (DLG3_2, Q92796): 4.17
- pKd (DLG4_3, P78352): below the threshold
- pKd (DLG5_1, Q8TDM6): below the threshold
- pKd (FRMPD2_2, Q68DX3): below the threshold
- pKd (GOPC, Q9HD26): 3.51
- pKd (GORASP2, Q9H8Y8): below the threshold
- pKd (GRIP2_5, Q9C0E4): below the threshold
- pKd (HTRA4, P83105): below the threshold
- pKd (IL16_1, Q14005): below the threshold
- pKd (IL16_4, Q14005): below the threshold
- pKd (Inadl_8, Q8NI35): below the threshold
- pKd (LIMK2, P53671): below the threshold
- pKd (LIN7B, Q9HAP6): 3.59
- pKd (MPDZ_10, O75970): below the threshold
- pKd (NHERF3_1, Q5T2W1): 5.33
- pKd (NOS1, P29475): below the threshold
- pKd (PARD3_3, Q8TEW0): below the threshold
- pKd (PDLIM1, O00151): below the threshold
- pKd (RAPGEF6, Q8TEU7): below the threshold
- pKd (SCRIB_1, Q14160): 4.32
- pKd (SNTA1, Q13424): below the threshold
- pKd (SNTG1, Q9NSN8): below the threshold
- pKd (SNTG2, Q9NY99): 4.19
- pKd (TIAM2, Q8IVF5): 4.03

B4: PDGFRB, P09619 (peptide)
chain: PRAEAEDSFL
- pKd (CASK, O14936): below the threshold
- pKd (DFNB31_1, Q9P202): 3.62
- pKd (DLG3_2, Q92796): below the threshold
- pKd (DLG4_3, P78352): below the threshold
- pKd (DLG5_1, Q8TDM6): 3.48
- pKd (FRMPD2_2, Q68DX3): 3.52
- pKd (GOPC, Q9HD26): below the threshold
- pKd (GORASP2, Q9H8Y8): below the threshold
- pKd (GRIP2_5, Q9C0E4): below the threshold
- pKd (HTRA4, P83105): 3.98
- pKd (IL16_1, Q14005): below the threshold
- pKd (IL16_4, Q14005): below the threshold
- pKd (Inadl_8, Q8NI35): below the threshold
- pKd (LIMK2, P53671): below the threshold
- pKd (LIN7B, Q9HAP6): below the threshold
- pKd (MPDZ_10, O75970): below the threshold
- pKd (NHERF3_1, Q5T2W1): 4.76
- pKd (NOS1, P29475): 3.57
- pKd (PARD3_3, Q8TEW0): 4.11
- pKd (PDLIM1, O00151): 3.54
- pKd (RAPGEF6, Q8TEU7): below the threshold
- pKd (SCRIB_1, Q14160): 3.76
- pKd (SNTA1, Q13424): 3.59
- pKd (SNTG1, Q9NSN8): below the threshold
- pKd (SNTG2, Q9NY99): below the threshold
- pKd (TIAM2, Q8IVF5): below the threshold
